Data from PMC7069705 (Science Advances, 2019).

B1: KAP3 (separately purified) (natural protein, mouse, UniProt P70188-1 1-793, looked up)
chain: MQGEDARYLKRKVKGGNIDVHPSEKALIVQYEVEATILGEMGDPMLGERKECQKIIRLKSLNANTDITSLARKVVEECKLIHPSKLSEVEQLLYYLQNRRDSLPGKEKKEKSSKPKDPPPFEGMEIDEVANINDMDEYIELLYEDIPDKVRGSALILQLARNPDNLEELLLNETALGALARVLREDWKQSVELATNIIYIFFCFSSFSHFHGLITHYKIGALCMNIIDHELKRHELWQEELSKKKKAVDEDLENQTLRKDYDKTFKKYQGLVVKQEQLLRVALYLLLNLAEDTRTELKMRNKNIVHMLVKALDRDNFELLILVVSFLKKLSIFMENKNDMVEMDIVEKLVKMIPCEHEDLLNITLRLLLNLSFDTGLRNKMVQVGLLPKLTALLGNENYKQIAMCVLYHISMDDRFKSMFAYTDCIPQLMKMLFECSDERIDLELISFCINLAANKRNVQLICEGNGLKMLMKRALKLKDPLLMKMIRNISQHDGPTKNLFIDYVGDLAAQISSDEEEEFVIECLGTLANLTIPDLDWELVLKEYKLVPFLKDKLKPGAAEDDLVLEVVIMIGTVSMDDSCAALLAKSGIIPALIELLNAQQEDDEFVCQIIYVFYQMVFHQATRDVIIKETQAPAYLIDLMHDKNNEIRKVCDNTLDIIAEYDEEWAKKIQSEKFRWHNSQWLEMVESRQLDESEQYLYGDDRIEPYIHEGDILERPDLFYNSDGLITSEGAISPDFFNDFHLQNGDVVGQHAFPGSLGMDGFGQPLGILGRPATAYGFRPDEPYYYSFGSR

Key:
[1] = biological target: full-length APC–green fluorescent protein (GFP) (mouse, UniProt Q61315 1-2845); assay: MST
[2] = biological target: the molecule itself; assay: single-molecule photobleaching step analysis
[3] = biological target: the molecule itself; assay: SEC-MALS
[4] = biological target: B1; assay: SEC-MALS

full-length APC–green fluorescent protein (GFP), sequence (Q61315 whole entry): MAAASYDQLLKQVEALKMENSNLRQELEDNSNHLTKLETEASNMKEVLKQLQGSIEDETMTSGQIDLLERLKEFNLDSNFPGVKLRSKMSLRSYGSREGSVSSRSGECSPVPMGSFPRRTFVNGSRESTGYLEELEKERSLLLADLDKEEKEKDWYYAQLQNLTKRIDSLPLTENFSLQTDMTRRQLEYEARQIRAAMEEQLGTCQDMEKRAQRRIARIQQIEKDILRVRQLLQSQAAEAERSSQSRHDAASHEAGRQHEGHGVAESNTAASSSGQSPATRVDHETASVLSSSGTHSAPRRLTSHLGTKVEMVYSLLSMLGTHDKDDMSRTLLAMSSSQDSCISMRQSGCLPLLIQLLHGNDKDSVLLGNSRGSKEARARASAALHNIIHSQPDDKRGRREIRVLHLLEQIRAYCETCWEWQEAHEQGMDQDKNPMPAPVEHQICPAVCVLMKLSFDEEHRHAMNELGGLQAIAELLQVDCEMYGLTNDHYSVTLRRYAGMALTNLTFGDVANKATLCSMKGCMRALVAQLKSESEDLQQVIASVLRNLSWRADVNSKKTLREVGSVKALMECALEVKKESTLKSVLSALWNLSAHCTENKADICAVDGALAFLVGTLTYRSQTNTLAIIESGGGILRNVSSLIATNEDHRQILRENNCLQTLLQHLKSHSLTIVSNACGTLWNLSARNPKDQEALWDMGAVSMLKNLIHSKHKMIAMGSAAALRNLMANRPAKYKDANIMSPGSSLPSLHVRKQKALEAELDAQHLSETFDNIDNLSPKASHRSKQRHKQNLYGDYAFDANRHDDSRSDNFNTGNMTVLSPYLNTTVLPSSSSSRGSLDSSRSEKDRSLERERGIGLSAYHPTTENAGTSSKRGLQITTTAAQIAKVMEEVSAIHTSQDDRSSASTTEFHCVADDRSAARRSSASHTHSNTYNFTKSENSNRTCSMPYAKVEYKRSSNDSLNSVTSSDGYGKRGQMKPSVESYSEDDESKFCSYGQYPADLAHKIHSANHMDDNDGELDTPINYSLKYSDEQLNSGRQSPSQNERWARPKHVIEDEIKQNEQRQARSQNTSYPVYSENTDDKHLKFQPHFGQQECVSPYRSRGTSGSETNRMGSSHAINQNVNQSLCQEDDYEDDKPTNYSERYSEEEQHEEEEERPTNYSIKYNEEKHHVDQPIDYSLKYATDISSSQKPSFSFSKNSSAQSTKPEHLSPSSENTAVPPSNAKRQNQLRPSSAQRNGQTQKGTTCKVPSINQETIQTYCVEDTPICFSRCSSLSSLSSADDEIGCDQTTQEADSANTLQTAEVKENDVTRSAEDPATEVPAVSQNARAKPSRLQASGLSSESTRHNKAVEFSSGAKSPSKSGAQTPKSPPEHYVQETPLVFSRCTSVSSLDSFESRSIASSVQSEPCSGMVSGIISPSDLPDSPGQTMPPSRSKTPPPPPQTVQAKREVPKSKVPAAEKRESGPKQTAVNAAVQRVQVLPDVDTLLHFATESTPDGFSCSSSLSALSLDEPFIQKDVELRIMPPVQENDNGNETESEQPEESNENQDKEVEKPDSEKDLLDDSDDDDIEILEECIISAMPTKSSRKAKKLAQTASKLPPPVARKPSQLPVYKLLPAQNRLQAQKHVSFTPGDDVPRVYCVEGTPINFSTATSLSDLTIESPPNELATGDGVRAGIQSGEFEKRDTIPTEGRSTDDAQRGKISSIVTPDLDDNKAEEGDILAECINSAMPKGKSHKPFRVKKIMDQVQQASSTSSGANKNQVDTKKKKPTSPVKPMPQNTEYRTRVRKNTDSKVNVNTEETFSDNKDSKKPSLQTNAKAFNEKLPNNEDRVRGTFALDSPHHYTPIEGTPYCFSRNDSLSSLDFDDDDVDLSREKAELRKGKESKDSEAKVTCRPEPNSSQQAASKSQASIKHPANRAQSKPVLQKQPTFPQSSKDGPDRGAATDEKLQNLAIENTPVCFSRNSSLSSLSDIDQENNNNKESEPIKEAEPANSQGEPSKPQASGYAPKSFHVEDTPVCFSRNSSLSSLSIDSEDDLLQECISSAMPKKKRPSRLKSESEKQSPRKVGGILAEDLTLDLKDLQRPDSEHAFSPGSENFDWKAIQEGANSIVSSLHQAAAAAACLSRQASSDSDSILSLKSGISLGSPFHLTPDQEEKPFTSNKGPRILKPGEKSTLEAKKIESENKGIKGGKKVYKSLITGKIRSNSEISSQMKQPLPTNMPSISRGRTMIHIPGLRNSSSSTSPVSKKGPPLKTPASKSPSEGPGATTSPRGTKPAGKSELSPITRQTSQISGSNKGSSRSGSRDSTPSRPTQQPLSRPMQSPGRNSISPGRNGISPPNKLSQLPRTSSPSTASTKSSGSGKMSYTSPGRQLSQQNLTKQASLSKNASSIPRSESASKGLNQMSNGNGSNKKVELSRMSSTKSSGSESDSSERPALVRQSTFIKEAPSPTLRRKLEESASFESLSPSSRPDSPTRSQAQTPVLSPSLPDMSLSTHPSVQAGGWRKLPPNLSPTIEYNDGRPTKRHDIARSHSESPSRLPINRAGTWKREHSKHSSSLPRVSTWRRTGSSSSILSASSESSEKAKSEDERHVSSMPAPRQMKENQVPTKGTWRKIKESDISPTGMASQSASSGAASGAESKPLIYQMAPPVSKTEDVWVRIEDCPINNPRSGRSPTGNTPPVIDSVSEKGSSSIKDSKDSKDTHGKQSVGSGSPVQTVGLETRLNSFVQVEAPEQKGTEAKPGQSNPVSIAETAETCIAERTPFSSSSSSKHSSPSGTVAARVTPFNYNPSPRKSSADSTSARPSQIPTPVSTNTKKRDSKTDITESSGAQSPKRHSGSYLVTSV

Binder: B1
- binding result [1]: binds

B2: homodimeric SNAP-KIF3A labeled with Alexa647 or TMR (natural protein, mouse, UniProt P28741 1-701, looked up)
chain: MPINKSEKPESCDNVKVVVRCRPLNEREKSMCYRQAVSVDEMRGTITVHKTDSSNEPPKTFTFDTVFGPESKQLDVYNLTARPIIDSVLEGYNGTIFAYGQTGTGKTFTMEGVRAVPGLRGVIPNSFAHIFGHIAKAEGDTRFLVRVSYLEIYNEEVRDLLGKDQTQRLEVKERPDVGVYIKDLSAYVVNNADDMDRIMTLGHKNRSVGATNMNEHSSRSHAIFTITIECSEKGVDGNMHVRMGKLHLVDLAGSERQAKTGATGQRLKEATKINLSLSTLGNVISALVDGKSTHVPYRNSKLTRLLQDSLGGNSKTMMCANIGPADYNYDETISTLRYANRAKNIKNKARINEDPKDALLRQFQKEIEELKKKLEEGEEVSGSDISGSEEDDEEGELGEDGEKKKKRRDQAGKKKVSPDKMVEMQAKIDEERKALETKLDMEEEERNKARAELERREKDLLKAQQEHQSLLEKLSALEKKVIVGGVDLLAKAEEQEKLLEESNMELEERRRRAEQLRKELEEKEQERLDIEEKYTSLQEEAQGKTKKLKKVWTMLMAAKSEMADLQQEHQREIEGLLENIRQLSRELRLQMLIIDNFIPQDYQEMIENYVHWNEDIGEWQLKCVAYTGNNMRKQTPVPDKKERDPFEVDLSHVYLAYTEESLRQSLMKLERPRTSKGKARPKMGRRKRSAKPETVIDSLLQ
modifications: Alexa647 or TMR dye on the SNAP tag
- stoichiometry N [2]: 2

B3: KIF3A (homodimer, separately purified) (natural protein, mouse, UniProt P28741 1-701, looked up)
chain: MPINKSEKPESCDNVKVVVRCRPLNEREKSMCYRQAVSVDEMRGTITVHKTDSSNEPPKTFTFDTVFGPESKQLDVYNLTARPIIDSVLEGYNGTIFAYGQTGTGKTFTMEGVRAVPGLRGVIPNSFAHIFGHIAKAEGDTRFLVRVSYLEIYNEEVRDLLGKDQTQRLEVKERPDVGVYIKDLSAYVVNNADDMDRIMTLGHKNRSVGATNMNEHSSRSHAIFTITIECSEKGVDGNMHVRMGKLHLVDLAGSERQAKTGATGQRLKEATKINLSLSTLGNVISALVDGKSTHVPYRNSKLTRLLQDSLGGNSKTMMCANIGPADYNYDETISTLRYANRAKNIKNKARINEDPKDALLRQFQKEIEELKKKLEEGEEVSGSDISGSEEDDEEGELGEDGEKKKKRRDQAGKKKVSPDKMVEMQAKIDEERKALETKLDMEEEERNKARAELERREKDLLKAQQEHQSLLEKLSALEKKVIVGGVDLLAKAEEQEKLLEESNMELEERRRRAEQLRKELEEKEQERLDIEEKYTSLQEEAQGKTKKLKKVWTMLMAAKSEMADLQQEHQREIEGLLENIRQLSRELRLQMLIIDNFIPQDYQEMIENYVHWNEDIGEWQLKCVAYTGNNMRKQTPVPDKKERDPFEVDLSHVYLAYTEESLRQSLMKLERPRTSKGKARPKMGRRKRSAKPETVIDSLLQ
- stoichiometry N [3]: 2
- binding result [4]: binds
